Experimental data reported in patent US20060024313A1, “Agents that disrupt dimer formation in DPP-IV family of prolyl dipeptidases” (priority 2004, published 2006).
Several values for one entry are separate records, joined by “and”; a condition that tells them apart may be missing. Identical values can stand only once. Marks after values point to notes of the source that are not given here. Peptide text beside a SMILES is read from it.

How the values were obtained:
[1] = target: H750A monomers (Homo sapiens, UniProt P27487, H750A); assay: AUC of H750A in the presence of inhibitor or dipeptide product; conditions: PBS buffer, FIG. 14
Method: AUC was performed for H750A in the presence of the proline-mimetic inhibitor and Gly-Pro dipeptide product, since the substrate Gly-Pro-pNA is cleaved by the enzyme.

[2] = Analytical ultracentrifugation (AUC): sedimentation velocity and equilibrium; type: physicochemical; conditions: for quaternary structure (monomer/dimer) by AUC: PBS buffer where stated; for Stokes' radius (Rs): sedimentation velocity experiments
Method: Buffer was changed using an Amicon device and DPP-IV proteins were allowed to equilibrate for at least four hours or longer as indicated in the text at 25° C. after buffer changes. The sedimentation coefficients (S) of the enzyme were estimated by a Beckman-Coulter XL-A analytical ultracentrifuge with an An60Ti rotor as described (25). Sedimentation velocity analysis was performed at 40,000 rpm at 25° C. with standard double sector aluminum centerpieces. The UV absorption of the cells was scanned every 5 min for 4 hours. Sedimentation equilibrium was performed at 20° C. with six-channel open centerpieces and then centrifuged at 12,000 rpm for 12 hours. The data from both sedimentation velocity and sedimentation experiments were analyzed with the SedFit version 8.7 program to obtain molecular weights and sedimentation coefficients (25). Sednterp version 1.07 program is used to obtain solvent density, viscosity, Stokes' radius (Rs) and anhydrous frictional ratio (f/fo).

[3] = test system: DPP-IV; assay: Kinetic constant measurements with chromogenic substrate H-Gly-Pro-pNA; type: biochemical, human; conditions: for Km / kcat: substrate H-Gly-Pro-pNA
Method: To measure the kinetic parameters, the chromogenic substrate H-Gly-Pro-pNA was utilized to initiate the reaction, which was monitored at OD 405 nm as a function of time (21). […] The initial rate was measured with less than 10% substrate depletion for the first 10 to 300 seconds. The steady-state parameters, kcat and Km, were determined from initial velocity measurements at 0.5 to 5 Km of the substrate concentrations. Lineweaver-Burk plots were analyzed using non-linear regression of the Michaelis-Menten equation. Correlation coefficients better than 0.99 were obtained throughout.

[4] = test system: DPP-IV; assay: Dilution experiment (specific activity after two-fold dilutions); type: biochemical, human; conditions: 200 nM to 1.6 nM enzyme, 16 hours at 25° C., 10 uM H-Gly-Pro-pNA
Method: Enzyme concentrations ranging from 200 nM to 1.6 nM were used in the dilution experiments. The experiments were carried out with consecutive two-fold dilutions in PBS containing 0.1% BSA and 1 mM DTT (dithiothreitol). The solution after dilution was incubated at 25° C. for 16 hours to ensure attainment of dimer-monomer equilibrium. The reaction was initiated by adding the substrate H-Gly-Pro-pNA at a final concentration of 10 uM for both wild type DPP-IV and H750A proteins. The initial rate of the reaction was recorded and converted to specific activity.

[5] = Size exclusion chromatography (gel filtration, Superdex 200); type: physicochemical; conditions: gel filtration experiments; PBS buffer
Method: Chemical crosslinking in intact cells was conducted as described (24). Size exclusion chromatography was conducted at 4° C. Purified proteins (0.5 ml at a concentration of 5 uM) were applied to a Superdex 200 10/30 column (10×300-310 mm) pre-equilibrated with PBS. The sample was eluted with the same buffer at 0.3 ml/min and 0.25 ml fractions were collected. The Superdex 200 10/30 column was calibrated with the Stokes Radii of ferritin (6.1 nm), catalase (5.22 nm), aldolase (4.81 nm), albumin (3.55 nm), ovalbumin (3.05 nm) and chymotrypsinogen A (2.09 nm) from Amersham-Pharmacia.

Chain of H750A monomers (P27487 39-766 H750A): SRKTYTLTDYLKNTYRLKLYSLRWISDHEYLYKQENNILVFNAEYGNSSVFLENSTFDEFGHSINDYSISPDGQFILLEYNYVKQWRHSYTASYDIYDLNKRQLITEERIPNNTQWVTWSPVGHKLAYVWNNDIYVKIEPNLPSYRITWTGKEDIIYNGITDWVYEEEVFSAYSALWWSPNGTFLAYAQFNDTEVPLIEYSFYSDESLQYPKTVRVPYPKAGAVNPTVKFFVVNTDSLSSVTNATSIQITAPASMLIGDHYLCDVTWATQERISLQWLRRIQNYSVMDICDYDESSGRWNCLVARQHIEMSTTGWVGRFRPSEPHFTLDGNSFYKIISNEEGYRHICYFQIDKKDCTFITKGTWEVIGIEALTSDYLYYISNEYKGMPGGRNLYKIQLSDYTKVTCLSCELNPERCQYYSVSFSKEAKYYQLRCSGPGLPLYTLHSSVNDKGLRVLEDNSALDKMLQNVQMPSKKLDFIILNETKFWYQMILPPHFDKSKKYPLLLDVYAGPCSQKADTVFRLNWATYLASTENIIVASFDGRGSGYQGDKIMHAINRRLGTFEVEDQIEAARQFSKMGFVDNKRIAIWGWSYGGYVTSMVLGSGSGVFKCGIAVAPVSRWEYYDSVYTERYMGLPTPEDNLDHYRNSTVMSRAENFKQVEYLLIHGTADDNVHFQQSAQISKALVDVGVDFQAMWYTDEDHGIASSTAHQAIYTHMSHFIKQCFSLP

NCC(=O)N1CCC[C@H]1C(=O)O [G-P-OH, Gly-Pro] (H-Gly-Pro-OH)
dimer formation of H750A monomers in the presence of the substance [1]: did not associate to form dimers

rDPP-IV: recombinant wild-type human DPP-IV (aa 39 to 766) from baculoviral infected insect cells
Sedimentation coefficient (s20, w) ([2]; High salt buffer): 5.0 S and 4.9 S | quaternary structure (subunit composition) by sedimentation velocity ([2]; High salt buffer (0.5 M sodium sulfate)): dimer | Anhydrous frictional ratio (f/fo) ([2]; PBS buffer): 1.4 | Sedimentation coefficient (s20, w) ([2]; PBS buffer): 8.4 S | quaternary structure (monomer/dimer) by AUC [2]: non-spherical dimer | Stokes' radius (Rs) ([2]; High salt buffer): 4.9^b nm | Stokes' radius (Rs) ([2]; PBS buffer): 5.0^b nm | Km ([3]; High salt buffer): 181 µM | kcat ([3]; High salt buffer): 57 s⁻¹ | Km ([3]; PBS buffer): 90 µM | kcat ([3]; PBS buffer): 87 s⁻¹ | AUC analysis or catalytic activities in low salt buffer ([3]; low salt buffer compared to PBS buffer (data not shown)): no differences | specific activity on dilution [4]: no decrease in specific activity | Stokes' radius (Rs) [5]: 5.6 nm and 5.6^a nm

sDPP-IV: endogenous DPP-IV purified from human semen
Anhydrous frictional ratio (f/fo) ([2]; PBS buffer): 1.4 | Sedimentation coefficient (s20, w) ([2]; PBS buffer): 9.1 S | quaternary structure (monomer/dimer) by AUC [2]: homodimeric | Stokes' radius (Rs) ([2]; PBS buffer): 5.8^b nm | Km ([3]; PBS buffer): 96 µM | kcat ([3]; PBS buffer): 73 s⁻¹ | specific activity on dilution [4]: no decrease in specific activity | Stokes' radius (Rs) [5]: 5.9 nm and 5.9^a nm
